The target of one data set is T1, NspEUGO (Nocardioides sp. YR527, UniProt A0A1G9AL67).
T1 construct: gene SAMN05428985_103382; recombinant, expressed in E. coli; flavin-dependent; details in supplement
T1 sequence (A0A1G9AL67 1-529): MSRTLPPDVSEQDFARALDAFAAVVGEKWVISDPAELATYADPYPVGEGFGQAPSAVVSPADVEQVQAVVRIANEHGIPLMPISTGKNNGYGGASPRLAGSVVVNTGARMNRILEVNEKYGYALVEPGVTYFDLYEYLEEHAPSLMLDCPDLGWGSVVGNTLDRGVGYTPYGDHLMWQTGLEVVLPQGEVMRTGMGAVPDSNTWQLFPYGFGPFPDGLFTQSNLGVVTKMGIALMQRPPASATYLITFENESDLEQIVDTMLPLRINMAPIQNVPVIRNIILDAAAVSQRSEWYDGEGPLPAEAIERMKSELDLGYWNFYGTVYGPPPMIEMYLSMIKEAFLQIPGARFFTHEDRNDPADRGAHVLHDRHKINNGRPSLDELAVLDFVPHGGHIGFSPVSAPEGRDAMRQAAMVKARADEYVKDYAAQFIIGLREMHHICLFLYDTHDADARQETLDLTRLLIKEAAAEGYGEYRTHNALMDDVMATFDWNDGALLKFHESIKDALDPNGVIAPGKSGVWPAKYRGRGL
Description: xylenol orange assay (initial rate). The data set is classed as biochemical. As to conditions: 2 mM substrate, 50 mM potassium phosphate pH 7.5.

The next data set deals with T2, RjEUGO (Rhodococcus jostii, UniProt Q0SBK1).
T2 construct: gene RHA1_ro03282; recombinant, expressed in E. coli; flavin-dependent; details in supplement
T2 sequence (Q0SBK1 1-526): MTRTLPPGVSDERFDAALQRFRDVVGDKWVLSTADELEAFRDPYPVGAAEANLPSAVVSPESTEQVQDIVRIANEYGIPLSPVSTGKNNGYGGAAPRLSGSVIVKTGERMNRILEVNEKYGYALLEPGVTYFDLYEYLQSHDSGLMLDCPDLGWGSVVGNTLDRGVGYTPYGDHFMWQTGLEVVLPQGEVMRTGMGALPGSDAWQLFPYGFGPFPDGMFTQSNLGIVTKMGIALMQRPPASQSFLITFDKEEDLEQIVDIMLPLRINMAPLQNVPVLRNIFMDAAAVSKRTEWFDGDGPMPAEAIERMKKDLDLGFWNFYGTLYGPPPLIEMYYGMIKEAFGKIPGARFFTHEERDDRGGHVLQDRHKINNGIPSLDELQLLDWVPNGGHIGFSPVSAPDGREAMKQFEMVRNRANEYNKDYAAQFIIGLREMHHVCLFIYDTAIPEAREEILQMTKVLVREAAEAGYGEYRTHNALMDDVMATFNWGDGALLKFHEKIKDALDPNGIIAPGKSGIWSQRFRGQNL
Description: xylenol orange assay (initial rate). The data set is classed as biochemical. As to conditions: 2 mM substrate, 50 mM potassium phosphate pH 7.5.

Substrate in data set [1]: C=CCc1ccc(O)c(OC)c1
Put plainly: Michaelis-Menten kinetics. Format: biochemical, Geodermatophilaceae bacterium. Conditions: optimal conditions for both enzymes (see supplement).

Substrate in data set [2]: COc1cc(CO)ccc1O
Put plainly: Michaelis-Menten kinetics. Format: biochemical, Geodermatophilaceae bacterium. As to conditions: optimal conditions for both enzymes (see supplement).

Substrate in data set [3]: OCc1ccc(O)cc1
Description: Michaelis-Menten kinetics. Conditions: pH 9.5. The data set is classed as biochemical, Geodermatophilaceae bacterium.

Substrate in data set [4]: C=CCc1ccc(O)c(OC)c1
Description: Michaelis-Menten kinetics. Format: biochemical, Arthrobacter sp. UCD-GKA. Conditions: optimal conditions for both enzymes (see supplement).

Substrate in data set [5]: COc1cc(CO)ccc1O
Put plainly: Michaelis-Menten kinetics. The data set is classed as biochemical, Arthrobacter sp. UCD-GKA. As to conditions: optimal conditions for both enzymes (see supplement).

Substrate in data set [6]: OCc1ccc(O)cc1
Description: Michaelis-Menten kinetics. Format: biochemical, Arthrobacter sp. UCD-GKA. As to conditions: pH 9.5.

As to `CCCCOCc1ccc(O)c(OC)c1` [compound 13, vanillyl butyl ether], on NspEUGO, the “xylenol orange assay (initial rate)” value is listed as “NspEUGO which is the most active wildtype enzyme on vanillyl butyl ether”.
As for `Oc1ccc(C2CCCC2)cc1` [compound 42, 4-cyclopentyl phenol], the “xylenol orange assay (initial rate)” value at RjEUGO was “RjEUGO which was the most active wildtype enzyme for 4-cyclopentyl phenol”.

B1: GbEUGO (Geodermatophilaceae bacterium) (protein)
chain: MSRILPPELSDSDFDAAIARFRDVVGEKHVLTEDGDLSRYRDPYPVGGQPSGGASAAVAPETSEQVQEIVRIANEYGVPLSPISTGKNNGYGGGQPRLSGAVVVDTGLRMNRILEVNEKFGYALLEPGVSYFDLYEHLQANAPSLMLDCPDLGWGSVVGNTLDRGVGYTPYGDHLMWQTGLEVVLPTGDVMRTGMGAVPGSNAWQLFPYGFGPFPDGLFTQSNLGIVTKMGIALMQRPPASETFVISFDREEDLEQVVDIMLPLRINMAPLQNVPVLRNIILDAGVVSKRTEWHDGDGPLPPEAISRMKAELGLGYWNLYGTVYGPPPVLEAHLGIIKDAFLQVPGSRFATTQDRDEATDRGAHVLHDRHRINNGIPSLDEMKLMEFVPNGGHIGFSPVSAPDGADALRQSQMVRRRADEYRKDYAAQFIVGLREMHHIGLFLFDTTDAVARQETLDLARVLIDEAAAAGYGEYRTHNALMDQVMGTYNWGGDALLKFHETIKDALDPNSVMAPGKSGIWGRKYRDRALA
notes: recombinant, expressed in E. coli; flavin-dependent; details in supplement
B1: the figures for the Km in data set [1], in data set [2] and in data set [3] were 23 ± 1 µM, 31 ± 1 µM and 455 ± 50 µM, respectively. The kcat in data set [1] is 23 ± 0.2 s⁻¹; in data set [2], 16 ± 0.4 s⁻¹; in data set [3], 18 ± 1 s⁻¹.

B2: AspEUGO (Arthrobacter sp. UCD-GKA) (protein)
chain: MSRIIPLDVSEADFDAALEEFRGALGAQWVLSSPVELEAFADPYPTTNGLEFLPGAVISPSTPEEVQVIVGIANKYKVPLSPVSTGKNLGYGGAAPRLSGTVVVNTGERMNKIIEVNEKYAFALVEPGVTYFDLYNHIQEKGYNLWIDVPDLGWGSIVGNTLDRGVGYTPYGDHWSWQTGLEVVLPDGDLLRTGMGAMSGSDAWQLFPYGFGPYPDGLFSQSNYGIVTKLGIALMPAPPASETFLITFENEADLEQVIDIMLPLRIGMAPLQNVPVLRNIFMDAAAVSHRDEWHAGPGHLSDDEIKTMQRELNLGYWNLYASVYGPPPQIEMFLAMIKEAFLQVPGARFATTKDRPESPEDRGGHVLHDRHKINRGIPTIEERHLMDWVPNGGHTSFSPVSAPDGKDAMRQALMVKKRADEFGQDYAAQFIVGLREMHHICLFLYNTAVPRERDNTLAMARILVEEAADAGYGEYRTHLALMDQVMATFDYNDGALLRFHERVKDALDPNSIMAPGKSGIWGARYRDRGLELLHAPALEDSTPNSA
notes: as for B1
For B2, the Km in data set [4] worked out at 28 ± 1 µM; in data set [5], 49 ± 3 µM; in data set [6], 33 ± 2 µM. Moreover, the kcat was 21 ± 0.4 s⁻¹ in data set [4], 24 ± 0.8 s⁻¹ in data set [5] and 18 ± 1 s⁻¹ in data set [6].

Source of the values: publication PMC11148156, “Substrate scope expansion of 4-phenol oxidases by rational enzyme selection and sequence-function relations” (Communications Chemistry, 2024).
